Data published in publication PMC4451072, “A Linear Epitope in the N-Terminal Domain of CCR5 and Its Interaction with Antibody” (PLoS ONE, 2015).
“Also recorded” adds a separate entry of the source. Read-outs that look alike come from different tables or passages of the source.

Legend:
hCCR5_1–31 [1] = experiment: Epitope mapping with truncated peptides by competitive ELISA; format: binding, human
Excerpt: (§1) The peptide encoding the N-terminal extracellular domain of human CCR5 ([…]-biotin, hCCR5_1–31) was synthesised by the Peptide Synthesis Laboratory, Cancer ResearchUK. The same peptide without the C-terminal cysteine biotin was synthesised by PeptideSynthetics (Fareham PO15 6DP). An analogue of the peptide with sulphated tyrosines at position 10 and 14 was synthesised as described previously and given as a gift by Prof. Fred Naider (City University of New York). The panel of truncated peptides used for epitope mapping (See Results, Subsection “Defining a linear epitope in the N-terminal domain of CCR5”) was synthesised by Sigma (Pepscreen). The chimeric peptide used for immunisation ([…]) was synthesised by the peptide synthesis facility at the University of Ghent. All peptides were >80% pure by HPLC and mass spectroscopy.
The pepscreen panel of CCR5 truncated peptides was screened by competitive ELISA. Antibody supernatant (typically diluted 1 in 1000 or 1 in 4000) was added to N-terminal domain peptide coated ELISA plates in the presence or absence of 1 μg/well of one of the competing peptides. The antibody peptide mixture was incubated overnight, washed and then bound antibody measured as described above.

[2] = test system: cell surface CCR5 (expressed on CCR5 transfectants); experiment: Affinity of RoAb13 for cell surface CCR5 by flow cytometry (Scatchard plot); format: binding, human; conditions: abstract value, CCR5-transfected cells
Excerpt: (§2) Chinese hamster ovary cells were transfected by electroporation with vectors expressing human or mouse CCR5 in an expression vector containing a neomycin resistance gene (Genecopoeia, #EX-Z0659-M02 and #EX-Mm01826-M02 respectively). G418 resistant cells were cloned by limit dilution and receptor expressing cells were identified by flow cytometry using RoAb13 anti-CCR5 and Rabbit anti-mouse FITC for human CCR5, and PE anti-Mouse CD195 (CCR5) (clone HM-CCR5, Insight Biotechnology) for mouse CCR5.
(§3) CHO cell transfectants (5 × 10^4) were incubated in 10% goat serum (Sigma) and 0.1% sodium azide for 30 min at 4°C. Purified antibodies or mouse sera at various dilutions were added, and incubated for 2–3 h at 4°C. Cells were washed and bound antibody detected using […] FITC or APC conjugates (R&D Systems). The number of bound antibody molecules was quantified in some experiments using Quikfit calibration beads containing known numbers of bound mouse IgG molecules as per manufacturers instructions (DAKO, #K0078).

[3] = test system: human peripheral blood leukocytes; experiment: Transwell migration assay, peripheral blood leukocytes; format: cell-based; conditions: responses to individual chemokines or inflammatory macrophage conditioned media
Experimental: (§4) Peripheral blood mononuclear cells and monocyte derived macrophages were prepared from peripheral blood as previously described. The study was approved by the joint University College London / University College London Hospitals NHS Trust Human Research Ethics Committee and written informed consent was obtained from all participants. […] Conditioned media from these cultures were then centrifuged at 10,000g for 5 minutes and stored at -80°C. Polycarbonate transwell inserts (Corning No. 3421, with […] and 6.5 mm diameter) were placed over 500 μL conditioned media or control media or media containing purified chemokines in 24-well plates. […] of freshly isolated PBMC (5x10^6 cells /mL) were loaded into the upper chamber of the transwell, and incubated for 3 hours at 37°C. Transwells were then lifted out of the lower chamber and the contents of the upper chamber were carefully aspirated. Each transwell filter was subsequently tilted to rinse the under surface twice with 200 μL 0.25% Trypsin-EDTA (Gibco) that was allowed to drain into the well (lower chamber). […] The lower chamber cell suspension was collected and fixed with 1% paraformaldehyde in phosphate buffered saline (PBS). […] 10 000 beads were counted to standardised cell count quantitation in each sample and transmigration of cells in the lower chamber was expressed as the proportion of the input.

mouse CCR5 = experiment: Flow cytometry binding of antibodies to CHO cells transfected with mouse CCR5; conditions: normalized to % maximum binding for each antibody
Excerpt: as §2, §3

HIV = conditions: cited from earlier work
[4] = test system: hCCR5_1–31 analogue with sulphated tyrosines at position 10 and 14; experiment: ELISA binding of RoAb13 to sulphated N-terminal CCR5 peptide; design: species or system human
Excerpt: as §1
(§5) 96 well ELISA plates (Nunc) were coated with peptide conjugates (10 μg/ml unless otherwise stated) in coating buffer (0.1 M sodium bicarbonate, pH 8.5), overnight at 4°C. All wells were washed (washing buffer PBS 0.1% Tween-20) and blocked by addition of 2% low fat milk (Tesco) in PBS for at least 1 h at room temperature. […] Unconjugated avidin was used as control coating. […] Bound antibody was detected using alkaline phosphatase coupled rabbit anti-mouse IgG or IgGFab (Sigma) antibody (1:2000 dilution) and substrate (PNPP FAST, Sigma). […]

[5] = test system: hCCR5_1–31 N-terminal domain peptide; experiment: Affinity of RoAb13 for hCCR5_1–31 peptide by competitive (two-stage) ELISA; format: binding, human; conditions: abstract value
Excerpt: as §1, §5

[6] = test system: untransfected controls (CHO cells); experiment: Flow cytometry binding of antibodies to untransfected controls; design: species or system Chinese hamster; conditions: normalized to % maximum binding for each antibody
Excerpt: as §2, §3

monocytes = experiment: Transwell migration assay, monocytes; format: cell-based, human; conditions: for migration of monocytes to macrophage conditioned medium: 3 h at 37°C, conditioned medium from resting and activated (LPS) macrophages
Experimental: Peripheral blood mononuclear cells and monocyte derived macrophages were prepared from peripheral blood as previously described. The study was approved by the joint University College London / University College London Hospitals NHS Trust Human Research Ethics Committee and written informed consent was obtained from all participants. […] Conditioned media from these cultures were then centrifuged at 10,000g for 5 minutes and stored at -80°C. Polycarbonate transwell inserts (Corning No. 3421, with […] and 6.5 mm diameter) were placed over 500 μL conditioned media or control media or media containing purified chemokines in 24-well plates. […] of freshly isolated PBMC (5x10^6 cells /mL) were loaded into the upper chamber of the transwell, and incubated for 3 hours at 37°C. Transwells were then lifted out of the lower chamber and the contents of the upper chamber were carefully aspirated. Each transwell filter was subsequently tilted to rinse the under surface twice with 200 μL 0.25% Trypsin-EDTA (Gibco) that was allowed to drain into the well (lower chamber). […] The lower chamber cell suspension was collected and fixed with 1% paraformaldehyde in phosphate buffered saline (PBS). […] A FACScalibur flow cytometer (Becton Dickinson) was used with FlowJo (version 9.4.3) analysis software. 10 000 beads were counted to standardised cell count quantitation in each sample and transmigration of cells in the lower chamber was expressed as the proportion of the input.

hCCR5_1–31 [7] = experiment: ELISA binding of antibodies to the N-terminal CCR5 peptide; design: species or system human; conditions: peptide coupled to avidin, OD 405 nm
Excerpt: as §1, §5

[8] = test system: CCR5 on human peripheral blood subpopulations; experiment: Expression of CCR5 on human peripheral blood subsets as detected by RoAb13; format: binding; conditions: S2 Fig
Excerpt: Peripheral blood subpopulations were stained using purified RoAb13 Fab fragment directly conjugated with […] as per manufacturer’s instructions.

[9] = test system: CHO-CCR5 transfected cells; conditions: ref [19]; cited from earlier work
Excerpt: The clear cut inhibitory effects of the antibody even ...

[10] = test system: human CCR5 (CHO cell transfectants); experiment: Flow cytometry binding of antibodies to CCR5-transfected CHO cells; conditions: indirect immunofluorescence
Excerpt: as §2, §3

lymphocytes = experiment: Transwell migration assay, lymphocytes; format: cell-based, human; conditions: 3 h, conditioned medium from resting and activated macrophages
Experimental: as §4

peptide spanning the whole of 5–25: peptide of the pepscreen panel spanning CCR5 residues 5–25 (VSSPIYDINYYTSEPCQKINV; UniProt P51681 5-25, looked up, fragment)
inhibition of R&D1801 binding to hCCR5_1–31 (hCCR5_1–31 [1]; competing peptide 1 μg/well, overnight, competitive ELISA): completely blocked

B1: RoAb13: mouse monoclonal anti-CCR5 antibody from hybridoma line number PZ3733 (Roche Palo Alto); EMBL LN832627 and LN832628 (antibody, V domains shown)
VH: EVQLQESGGGLVKPGGSLKLSCAASGFTFSTYAMSWVRQTPEKRLEWVASISTGDNTYYTDSVRGRFTISRDNARNILYLQMSSLRSEDTAMYFCTRGRGDRGDLFGYWGQGTLVTVSS
VL: DIVMSQSPSSLAVSVGEKVTMSCKSSQSLLYRGNQMNYLAWYQQKPGQSPKLLIYWASTRESGVPDRFTGSGSGTEFTLTISSVKAEDLTVYYCQQYYTYPRTFGGGTKLEIK
core epitope recognised (hCCR5_1–31 [1]; competitive ELISA with truncated peptides, defined by inhibition of binding by more than 50%): between aa8 (proline) and 13(asparagine)
affinity for cells [2]: 6e+08 M⁻¹
chemokine or conditioned media induced leukocyte migration [3]: effectively blocked chemokine induced migration of human peripheral blood leukocytes
binding to CHO cells transfected with mouse CCR5 (mouse CCR5): less than 5 % of maximum binding
HIV blocking (HIV; previously shown): block HIV infection; also recorded: potent HIV blocking activity
inhibition of HIV infection (HIV; ref [19],[32]): potent inhibitor of HIV infection
inhibition of HIV infection (HIV; single round and spreading infection assays, ref [19]): inhibit HIV infection, in both single round and spreading infection assays
binding to sulphated vs non-sulphated peptide ([4]; peptide sulphated at tyrosines 10 and 14): bound more strongly (heteroclytic binding) to sulphated than non-sulphated forms of the peptide; also recorded: binding to peptide was significantly enhanced by the sulphation of target tyrosines
binding to sulphated vs non-sulphated peptide ([4]; peptide sulphated at tyrosines 10 and 14, listed as RoAb 13): binding to the peptide is enhanced by sulfation of tyrosines at positions 10 and 14
affinity for peptide [5]: 1.2e+07 M⁻¹
binding to untransfected controls [6]: less than 5 % of maximum binding
migration in response to CCR5 binding chemokines (monocytes): blocks migration of monocytes in response to CCR5 binding chemokines; also recorded: ability to block chemokine induced monocyte migration; also recorded: inhibits migration induced by chemokines which bind CCR5
migration of monocytes to macrophage conditioned medium (monocytes): blocks migration of monocytes; also recorded: inhibits monocyte chemotaxis
migration in response to CCL2 (monocytes; CCL2, S3 Fig): blocked migration
migration in response to CCL3 (monocytes; CCL3, S3 Fig): blocked migration
migration in response to CCL4 (monocytes; CCL4, S3 Fig): blocked migration
migration in response to CXCL12 (monocytes; CXCL12 (acts via CXCR4), S3 Fig): failed to block migration
recognition of the synthetic N-terminal peptide (hCCR5_1–31 [7]): recognised the synthetic peptide; also recorded: bound to both linear peptide and native forms of the epitope
detection of CCR5 on CD4, CD8 and NK cells [8]: detected CCR5 on a subpopulation of human peripheral CD4, CD8 and NK cells
detection of CCR5 on monocytes and B cells [8]: low levels of CCR5 expression
block of binding of CCL3, 4 and CCL5 [9]: only partial ability to block binding of CCL3, 4 and CCL5
block of chemokine induced calcium flux [9]: only partial ability
binding to CCR5-expressing transfectants [10]: bound strongly to CCR5-expressing transfectants; also recorded: quite heterogenous

B2: RoAb13 Fab fragment: Fab fragment of RoAb13 produced by papain digestion; PDB 4S2S (antibody, V domains shown)
VH: B1 VH
VL: B1 VL
migration of monocytes to macrophage conditioned medium (monocytes): significant difference from control (T test, p<0.05)
migration of monocytes to macrophage conditioned medium (monocytes; listed as Fab fragment of RoAb13): significantly inhibited the migration of monocytes
migration of lymphocytes to macrophage conditioned medium (lymphocytes): not lymphocytes
